# T1: his-tagged FtsA protein (Streptococcus suis, UniProt A0A0H3MTL7 1-459)
# T1 chain: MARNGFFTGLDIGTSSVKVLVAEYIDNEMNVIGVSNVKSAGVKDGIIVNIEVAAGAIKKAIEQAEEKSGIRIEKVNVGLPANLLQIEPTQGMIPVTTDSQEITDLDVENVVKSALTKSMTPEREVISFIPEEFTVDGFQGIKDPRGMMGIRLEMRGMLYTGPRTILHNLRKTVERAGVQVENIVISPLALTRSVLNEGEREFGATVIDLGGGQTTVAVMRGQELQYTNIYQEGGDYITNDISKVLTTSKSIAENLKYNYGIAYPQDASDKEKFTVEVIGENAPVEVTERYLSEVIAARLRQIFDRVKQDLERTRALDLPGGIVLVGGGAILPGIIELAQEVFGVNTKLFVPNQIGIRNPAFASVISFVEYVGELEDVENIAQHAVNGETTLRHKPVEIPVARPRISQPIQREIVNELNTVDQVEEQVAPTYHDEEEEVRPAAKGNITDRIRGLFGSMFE
# T2: his-tagged FtsA protein (Streptococcus suis, UniProt A0A0H3MTL7 1-459)
# T2 construct: FtsA of Streptococcus suis, locus SSU05_0480; It was purified 'in the same way but without the SUMO cleavage step'; source: E. coli BL21 (DE3), pET28a, purified (Ni-NTA)
# T2 sequence (looked up): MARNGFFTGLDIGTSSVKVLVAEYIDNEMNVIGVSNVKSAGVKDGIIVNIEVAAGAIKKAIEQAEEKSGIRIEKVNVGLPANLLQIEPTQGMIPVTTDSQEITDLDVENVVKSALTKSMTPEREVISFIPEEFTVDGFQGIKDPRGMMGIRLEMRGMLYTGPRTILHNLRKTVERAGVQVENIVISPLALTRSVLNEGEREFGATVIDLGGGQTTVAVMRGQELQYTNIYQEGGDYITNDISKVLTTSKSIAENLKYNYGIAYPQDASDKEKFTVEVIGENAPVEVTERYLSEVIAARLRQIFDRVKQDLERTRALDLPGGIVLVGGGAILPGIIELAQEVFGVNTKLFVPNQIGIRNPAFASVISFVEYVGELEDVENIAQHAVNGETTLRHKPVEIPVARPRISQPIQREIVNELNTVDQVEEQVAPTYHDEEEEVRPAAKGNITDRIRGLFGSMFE
# Key:
# [1] = molecular target: FtsA of S. pneumoniae, bacterial two-hybrid fusion (UniProt A0A0H2ZPT5); assay: bacterial two-hybrid, β-galactosidase activity; settings: cultured at 30°C for 16 h; parent: est. 110; read off a plot
# Chain of FtsA of S. pneumoniae, bacterial two-hybrid fusion (A0A0H2ZPT5 whole entry, the tested form may be a part): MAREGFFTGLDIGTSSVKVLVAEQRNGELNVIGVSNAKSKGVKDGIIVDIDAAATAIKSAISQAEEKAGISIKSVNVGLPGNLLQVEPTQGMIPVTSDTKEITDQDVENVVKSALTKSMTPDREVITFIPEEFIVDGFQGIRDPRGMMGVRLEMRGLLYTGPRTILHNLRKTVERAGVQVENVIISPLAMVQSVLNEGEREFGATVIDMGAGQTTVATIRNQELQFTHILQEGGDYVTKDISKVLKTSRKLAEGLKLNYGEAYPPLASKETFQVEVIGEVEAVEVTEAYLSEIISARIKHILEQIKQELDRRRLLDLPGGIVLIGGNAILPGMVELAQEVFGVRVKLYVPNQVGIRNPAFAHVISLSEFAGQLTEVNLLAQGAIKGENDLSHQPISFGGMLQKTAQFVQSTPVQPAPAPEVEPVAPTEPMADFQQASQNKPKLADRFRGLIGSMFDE
# [2] = molecular target: FtsA of B. subtilis, bacterial two-hybrid fusion (UniProt P28264); assay: bacterial two-hybrid, β-galactosidase activity; settings: cultured at 30°C for 16 h; parent: est. 270; read off a plot
# Chain of FtsA of B. subtilis, bacterial two-hybrid fusion (P28264 whole entry, the tested form may be a part): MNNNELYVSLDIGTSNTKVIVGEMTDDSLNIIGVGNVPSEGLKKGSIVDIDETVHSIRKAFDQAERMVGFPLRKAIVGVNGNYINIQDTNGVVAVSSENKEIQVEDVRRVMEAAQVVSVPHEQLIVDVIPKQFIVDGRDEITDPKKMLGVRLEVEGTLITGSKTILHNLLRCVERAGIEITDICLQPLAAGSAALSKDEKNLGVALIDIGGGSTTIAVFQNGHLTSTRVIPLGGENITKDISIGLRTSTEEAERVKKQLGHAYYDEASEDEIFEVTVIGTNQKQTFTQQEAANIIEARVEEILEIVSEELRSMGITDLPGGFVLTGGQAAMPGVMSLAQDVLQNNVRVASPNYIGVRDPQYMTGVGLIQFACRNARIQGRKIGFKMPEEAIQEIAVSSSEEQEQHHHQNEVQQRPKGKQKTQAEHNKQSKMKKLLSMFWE
# [3] = molecular target: FtsA of E. faecalis, bacterial two-hybrid fusion (UniProt O07111); assay: bacterial two-hybrid, β-galactosidase activity; settings: cultured at 30°C for 16 h; parent: est. 42; read off a plot
# Chain of FtsA of E. faecalis, bacterial two-hybrid fusion (O07111 whole entry, the tested form may be a part): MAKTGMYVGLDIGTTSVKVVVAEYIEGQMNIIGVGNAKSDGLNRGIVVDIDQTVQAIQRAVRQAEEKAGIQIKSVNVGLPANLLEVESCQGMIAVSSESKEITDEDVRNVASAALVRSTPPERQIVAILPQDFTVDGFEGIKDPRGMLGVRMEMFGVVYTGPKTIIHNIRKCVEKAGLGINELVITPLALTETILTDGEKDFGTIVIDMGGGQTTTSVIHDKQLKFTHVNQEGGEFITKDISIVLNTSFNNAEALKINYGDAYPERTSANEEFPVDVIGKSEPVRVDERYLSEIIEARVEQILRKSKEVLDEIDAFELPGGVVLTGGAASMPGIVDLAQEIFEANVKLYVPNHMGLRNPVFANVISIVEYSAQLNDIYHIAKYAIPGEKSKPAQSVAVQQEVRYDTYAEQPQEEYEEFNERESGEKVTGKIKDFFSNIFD
# [4] = molecular target: FtsA of S. suis, bacterial two-hybrid fusion (UniProt A0A0H3MTL7); assay: bacterial two-hybrid, β-galactosidase activity; settings: cultured at 30°C for 16 h; parent: est. 300; read off a plot
# [5] = molecular target: T1, his-tagged FtsA protein; assay: SPR; equilibrium (steady-state) fit
# [6] = molecular target: T1, his-tagged FtsA protein; assay: SPR; kinetic fit
# [7] = molecular target: T2, his-tagged FtsA protein; assay: SPR; Biacore T200; FtsA covalently immobilised on a CM5 chip (700 RU); EzrA_(cyto) or its variant injected at 200 to 3.125 µM in twofold dilutions, 30 µL/min, 25°C; equilibrium response fitted to a 1:1 binding model; settings: both partners purified
# Chain of EzrA of B. subtilis, bacterial two-hybrid fusion (O34894 whole entry, change not shown, the tested form may be a part): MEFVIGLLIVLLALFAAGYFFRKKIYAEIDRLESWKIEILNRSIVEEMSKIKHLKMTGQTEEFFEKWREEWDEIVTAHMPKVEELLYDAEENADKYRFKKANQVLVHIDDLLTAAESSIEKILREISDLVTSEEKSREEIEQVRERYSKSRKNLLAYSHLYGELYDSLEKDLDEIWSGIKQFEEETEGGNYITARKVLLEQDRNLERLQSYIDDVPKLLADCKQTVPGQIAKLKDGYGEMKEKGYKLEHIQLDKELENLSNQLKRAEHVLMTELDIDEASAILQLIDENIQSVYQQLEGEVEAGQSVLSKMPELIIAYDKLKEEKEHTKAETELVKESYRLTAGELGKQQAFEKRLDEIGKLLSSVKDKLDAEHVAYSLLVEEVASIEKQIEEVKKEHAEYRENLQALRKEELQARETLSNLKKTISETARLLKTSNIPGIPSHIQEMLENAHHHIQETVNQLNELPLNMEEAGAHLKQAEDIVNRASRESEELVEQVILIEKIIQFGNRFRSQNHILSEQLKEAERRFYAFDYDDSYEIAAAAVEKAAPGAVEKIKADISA
molecule,measurement,setting,value
"EzrA of S. pneumoniae, bacterial two-hybrid fusion R515D",response,[1],21 rel.U
"EzrA of B. subtilis, bacterial two-hybrid fusion (from UniProt O34894) QND",response,[2],38 rel.U
"EzrA of Enterococcus faecalis, bacterial two-hybrid fusion (from UniProt Q838R5) QND",response,[3],25 rel.U
"EzrA of S. suis, bacterial two-hybrid fusion R514D",response,[4],50 rel.U
"cytoplasmic region of EzrA protein of S. suis (domain or fragment, Streptococcus suis, UniProt A4VWI6 27-574, looked up, EzrA of Streptococcus suis, locus SSU05_1509, cytoplasmic region; also called EzrA_(cyto); source: E. coli BL21 (DE3), pET28a, purified (Ni-NTA, SUMO protease cleavage); not shown: His-SUMO, C-terminal, cleaved) RKRNDNLLVALEERKEELFNLPVNEEVETVKALHLIGQSQVSFREWNQKWVDLSLNSFADIENHIFEAEGYNNAFRFVSAKNAIDSIDSQIDLIEEDIASIRQGLMELKEQEEKNSGRVKHALNLFDSLQEAVRENPDSYGETLSELEKQLKNIEVEFSEFVMLNSSGDPIEASEILDKTEEHMIALNQIMDRIPSLIERVTKDFPEQLEDLESGYRKLVEQNYLFTEANIESQFQNIRVSIRENTALIVSFDLDAAEAENEGIQAKIDHLYKVFNREIEANKEAVKISKNLPKFLEHVVQNTQLLDEESQRLNATYLLADSKLSRINQLKARLESIEIVVTESVEDIENPQVAYSILEERLDHSLASLKEIEEEQLVLADYLKSQELSENTARKKATLYINKLHTLKRYMEKRNLPGIPAEFLTNFFRTSDHVEALIAELDYKRINIEVVNRLLENATYDMNQLEELAYLIVQNATLTEQLLQYSNRYRSFDESVQKAFNRSLSIFEKDFDYQAAFEEISFALETVEPGVTERFVRSYEKTREAIRY",Kd,[5],37.2 nM
same,Kd,[6],1.91 nM
same,fold binding affinity against EzrA^R514D,[7],≥ 10 fold

# Reference: article PMC12288466, “EzrA promotes Z-ring formation through interaction of its QNR motif with FtsA” (Journal of Bacteriology, 2025)
